This experiment has as its target T1, LAGE3 (full-length, subunit of the recombinant GON7/LAGE3/OSGEP complex) (human, UniProt Q14657 1-143).
T1 construct: LAGE3, human, KEOPS subunit (homolog of Pcc1); full-length protein used for all structural work; no electron density for the 60 N-terminal residues; source: recombinant, co-expressed with the other KEOPS subunits, purified (size exclusion chromatography, NiIDA); details in Supplementary Methods
T1 sequence (looked up): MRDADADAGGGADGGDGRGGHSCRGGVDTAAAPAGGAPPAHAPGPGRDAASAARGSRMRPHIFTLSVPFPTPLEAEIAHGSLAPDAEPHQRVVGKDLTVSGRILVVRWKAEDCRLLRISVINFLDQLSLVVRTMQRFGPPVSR
The experiment in a line: SEC-SAXS; SAXS on samples eluting from an online size exclusion HPLC column; 20 mM MES pH 6.5, 200 mM NaCl, 5 mM 2-mercaptoethanol; purified recombinant GON7/LAGE3/OSGEP complex. To be noted: both partners purified.

B1: GON7 (full-length, subunit of the recombinant GON7/LAGE3/OSGEP complex) (natural protein, human, UniProt Q9BXV9 1-100, looked up)
chain: MELLGEYVGQEGKPQKLRVSCEAPGDGDPFQGLLSGVAQMKDMVTELFDPLVQGEVQHRVAAAPDEDLDGDDEDDAEDENNIDNRTNFDGPSAKRPKTPS
notes: GON7 (alias C14orf142), human, fifth subunit of the KEOPS complex; full-length protein used for all structural work; only residues 1-20 and 25-50 are seen in the crystal; also called C14orf142; GON7-his; source: recombinant, co-expressed with the other KEOPS subunits, purified (size exclusion chromatography, NiIDA); details in Supplementary Methods
In general, stoichiometry N refers to the number of molecules, sites or subunits per partner or assembly. As for B1, the “stoichiometry N” value is 1.

B2: OSGEP (full-length, subunit of the recombinant GON7/LAGE3/OSGEP complex) (enzyme, human, UniProt Q9NPF4 1-335, looked up)
chain: MPAVLGFEGSANKIGVGVVRDGKVLANPRRTYVTPPGTGFLPGDTARHHRAVILDLLQEALTESGLTSQDIDCIAYTKGPGMGAPLVSVAVVARTVAQLWNKPLVGVNHCIGHIEMGRLITGATSPTVLYVSGGNTQVIAYSEHRYRIFGETIDIAVGNCLDRFARVLKISNDPSPGYNIEQMAKRGKKLVELPYTVKGMDVSFSGILSFIEDVAHRMLATGECTPEDLCFSLQETVFAMLVEITERAMAHCGSQEALIVGGVGCNVRLQEMMATMCQERGARLFATDERFCIDNGAMIAQAGWEMFRAGHRTPLSDSGVTQRYRTDEVEVTWRD
notes: OSGEP, human, catalytic subunit of the KEOPS complex (homolog of Kae1); full-length protein used for all structural work; source: recombinant, co-expressed with the other KEOPS subunits, purified (size exclusion chromatography, NiIDA); details in Supplementary Methods
For the molecule B2, the “stoichiometry N” value was 1.

Source of the values: publication PMC6722078, “Defects in t^6A tRNA modification due to GON7 and YRDC mutations lead to Galloway-Mowat syndrome” (Nature Communications, 2019).
